Experimental data as given in publication PMC12135937, “Members of the DIP and Dpr adhesion protein families use cis inhibition to shape neural development in Drosophila” (PLOS Biology, 2025).

Key:
Conditions in all cases: both partners purified
[1] = biological target: T1, DIP-β isoform G (Drosophila melanogaster); test: SPR; Biacore T100, CM4 chip; DIPs immobilised by amine coupling (700-900 RU), monomeric Dpr analytes in 3-fold dilution series (0.012 to 9, 27 or 81 µM); 25 °C; 10 mM Tris-HCl pH 7.2, 150 mM NaCl, 1 mM EDTA, 1 mg/mL BSA, 0.01% Tween-20; equilibrium responses fit to a 1:1 model
T1 construct: has an 11 amino acid deletion in the first Ig domain relative to DIP-β-C; Monomeric protein was used for SPR; also called DIP-β-G; not shown: His6, C-terminal, kept
T1 chain: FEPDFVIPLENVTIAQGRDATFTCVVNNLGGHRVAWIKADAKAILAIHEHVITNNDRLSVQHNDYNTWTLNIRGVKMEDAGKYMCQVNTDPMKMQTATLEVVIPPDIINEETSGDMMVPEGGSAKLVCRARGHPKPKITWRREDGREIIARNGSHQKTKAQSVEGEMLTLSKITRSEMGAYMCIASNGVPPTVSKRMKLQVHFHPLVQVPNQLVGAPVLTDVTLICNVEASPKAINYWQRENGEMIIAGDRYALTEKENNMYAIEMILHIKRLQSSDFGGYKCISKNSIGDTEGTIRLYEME

[2] = biological target: T2, DIP-β isoform C (Drosophila melanogaster); test: as above
T2 construct: Monomeric protein was used for SPR; also called DIP-β-C
T2 sequence (main, as listed by the source): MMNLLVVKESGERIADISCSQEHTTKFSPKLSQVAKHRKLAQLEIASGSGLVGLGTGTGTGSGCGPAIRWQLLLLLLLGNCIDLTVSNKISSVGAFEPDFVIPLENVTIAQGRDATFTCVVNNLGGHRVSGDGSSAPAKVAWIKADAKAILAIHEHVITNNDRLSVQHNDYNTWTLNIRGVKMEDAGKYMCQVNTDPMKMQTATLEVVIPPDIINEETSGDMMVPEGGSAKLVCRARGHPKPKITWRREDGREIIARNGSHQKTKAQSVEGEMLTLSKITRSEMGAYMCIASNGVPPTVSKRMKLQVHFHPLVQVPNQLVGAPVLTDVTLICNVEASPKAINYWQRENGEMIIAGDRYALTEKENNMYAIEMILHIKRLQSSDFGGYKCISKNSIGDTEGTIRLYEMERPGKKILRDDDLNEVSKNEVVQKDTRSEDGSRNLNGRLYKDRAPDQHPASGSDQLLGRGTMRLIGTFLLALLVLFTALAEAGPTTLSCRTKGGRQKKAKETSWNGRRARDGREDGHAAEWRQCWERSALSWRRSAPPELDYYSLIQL

[3] = biological target: T3, DIP-β-G recombinant protein for SPR (printed sequence) (Drosophila melanogaster); test: SPR; Biacore T100, CM4 chip; DIPs immobilised by amine coupling (700-900 RU), monomeric Dpr analytes in 3-fold dilution series; 25 °C; 10 mM Tris-HCl pH 7.2, 150 mM NaCl, 1 mM EDTA, 1 mg/mL BSA, 0.01% Tween-20; equilibrium responses fit to a 1:1 model
T3 construct: DIP-β isoform G, Drosophila melanogaster; Monomeric protein was used for SPR; immobilised by amine coupling; also called Isoform G of DIP-β; not shown: His6, C-terminal, kept
T3 chain: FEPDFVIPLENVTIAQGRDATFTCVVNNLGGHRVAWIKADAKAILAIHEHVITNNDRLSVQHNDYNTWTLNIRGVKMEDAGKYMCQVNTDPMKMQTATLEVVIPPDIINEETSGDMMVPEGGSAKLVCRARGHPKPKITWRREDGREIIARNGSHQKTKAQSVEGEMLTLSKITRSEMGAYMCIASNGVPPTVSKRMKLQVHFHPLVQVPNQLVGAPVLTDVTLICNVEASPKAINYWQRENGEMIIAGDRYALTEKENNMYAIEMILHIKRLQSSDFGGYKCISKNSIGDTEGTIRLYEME

Binder	Kd [1]	Kd [2]	Kd [3]
Dpr10-A recombinant protein for SPR (printed sequence) (domain or fragment, Drosophila melanogaster, Dpr10 isoform A, Drosophila melanogaster; Monomeric protein was used for SPR; analyte; not shown: His6, C-terminal, kept) WNEPYFDLTMPRNITSLVGKSAYLGCRVKHLGNKTVAWIRHRDLHILTVGTYTYTTDQRFQTSYHRDIDEWTLQIKWAQQRDAGVYECQISTQPVRSYSVNLNIVDLIDAETSDIMQQYYNDDAFYIAENRVYQSSNDEFAGMFGPIQTVAVPTATILGGPDLYVDKGSTINLTCIIKFSPEPPTHIFWYHQDKVLSEETSGGRLKFKTIKSEETKSILLIYDADLLHSGKYSCYPSNTEIASIRVHVLQGE			5.76 µM
Dpr6 (natural protein) WMEPYFDPSTPRNVTALMGKSAYLSCRVRNLANKTVSWIRHRDIHILTVGSYTYTSDQRFQATHHQDTEDWTLQIKWAQKRDAGMYECQISTQPVRSYFVRLNVVVPTATILGGPDLHVDKGSTINLTCTVKFSPEPPAYIFWYHHEEVINYDSSRGGVSVITEKGDVTTSFLLIQNADLADSGKYSCAPSNADVASVRVHVLNGE	15.2 µM	22 µM	

The remaining lines, values ahead:

Kd [1]	Kd [2]	Kd [3]	Binder
5.05 µM	1.55 µM		Dpr21 (natural protein) DRGPYFDTSATKNVTSLVGITGHLNCRIKNLGNKTVSWIRHRDLHLLTVSESTYTSDQRFTSIYNKQTGDWSLQIKFPQLRDSGIYECQVSTTPPVGYTMVFSVVEPITSILGGPEIYIDLGSTVNLTCVIKHLPDPPISVQWNHNNQEINYDSPRGGVSVITEKGDITTSYLLIQRASIADSGQYTCLPSNANSKSVNVHILKGD
159 µM	25.3 µM		Dpr15 (natural protein) TLKPPPTIDDYQTIISQAGTHAYLPCNVKQLVKKPISWLRMRDGHILTVDQTTFIADQRFQSVFSPNPERWSLQIKYVQLKDEGTYECQVSTEPKASAIVHLRIVEPKTELIGESTRHVKAGSQVKLRCIISQALEPPLFINWFYNQKQIYLHNRRGWRTEIERIDLPAEVPTTSTTTTTTTTTASTTTTTTSTTPATPSTTATGSTEGATSSETLNGLVTITRSYILDAISQNDVSELGAAAGVAVATETSTAQLLTEVEATSSTSGTSTGAGLLASTSAAYAAGAAAGITTAATGDSAATAATTSAWLTTMDAEAATTAATTTTTMLPSSSFIKQITTASLIIPAVVKLDSGNYTCSPSNSAPRTIVLHVLNGE
